Laboratory results from paper doi:10.1101/2024.02.15.580443.
Like-named read-outs stand apart in the source and are kept apart here.

Key:
[1] = molecular target: ComM from Legionella pneumophila (C-terminal His6-tag) (Legionella pneumophila Paris) (UniProt Q5ZXZ0); experiment: cryo-EM structure
[2] = molecular target: ComM from Legionella pneumophila (C-terminal His6-tag) (Legionella pneumophila Paris) (UniProt Q5ZXZ0); experiment: cryo-EM structure; remark: listed apart in the source
[3] = molecular target: RadA R301A mutant from Streptococcus pneumoniae (for biochemical assays) (Streptococcus pneumoniae (R800 derivative strain)) (UniProt Q8DRP0)
[4] = molecular target: RadA from Streptococcus pneumoniae (strep-tagged, for cryoEM) (Streptococcus pneumoniae) (UniProt Q8DRP0); experiment: cryo-EM structure

“ComM from Legionella pneumophila (C-terminal His6-tag) (from UniProt Q5ZXZ0 1-503) (enzyme)” gave a stoichiometry N [1] of 12 and a stoichiometry N [2] of 6.
“RadA R301A mutant from Streptococcus pneumoniae (for biochemical assays) (from UniProt Q8DRP0 2-419) (enzyme)” showed a stoichiometry N [3] of 6.
For “RadA from Streptococcus pneumoniae (strep-tagged, for cryoEM) (from UniProt Q8DRP0 1-420) (enzyme)”, the stoichiometry N [4] was 6.
